From patent US20200087408A1 (ANAPTYSBIO, published 2020)
Residue numbers refer to the chain shown, from its start. Blank lines part the entries; values can stand above or below the binder they belong to.

Key:
[1] = target: T1, extracellular domain of human IL-36R (human, UniProt Q9HB29 20-335); test: KINEXA 3000 solution-phase equilibrium, soluble human IL-36R extracellular domain
T1 construct: extracellular domain; Immobilised on the chip in the BIACORE assay; soluble and bead-coupled in the KINEXA assay; also called soluble human IL-36R extracellular domain
T1 sequence (looked up): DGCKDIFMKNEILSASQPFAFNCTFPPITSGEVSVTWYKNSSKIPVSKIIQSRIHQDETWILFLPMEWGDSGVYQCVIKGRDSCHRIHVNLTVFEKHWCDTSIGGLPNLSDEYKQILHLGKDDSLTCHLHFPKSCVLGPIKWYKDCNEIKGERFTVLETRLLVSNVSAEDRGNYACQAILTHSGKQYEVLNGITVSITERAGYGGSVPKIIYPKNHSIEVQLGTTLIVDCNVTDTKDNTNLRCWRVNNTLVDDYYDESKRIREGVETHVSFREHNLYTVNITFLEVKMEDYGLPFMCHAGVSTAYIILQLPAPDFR
Protocol: The binding affinities of various purified antibodies comprising immunoglobulin heavy chain (HC) and light chain (LC) polypeptides described herein also were evaluated using a KINEXA® 3000 assay (Sapidyne Instruments, Boise, Id.) assays. KINEXA® technology measures the amount of unbound/free antibody molecule in solution phase after incubation with varying concentrations of antigen. Measuring binding events in the solution phase with micro beads for maximized surface area avoids mass transport limitations and mobility effects inherent to methods that measure binding to a solid phase. For each experiment, 50 μg of soluble human or cyno IL-36R extracellular domain was amine-coupled to 50 mg of UltraLink Biosupport beads (Thermo Fisher Scientific, Waltham, Mass.). […] Antibody-antigen solution was then flowed over antigen-coupled beads at a rate of 0.25 mL/min. Free antibody captured by beads was detected using ALEXA FLUOR™ 647-conjugated AffiniPure Donkey Anti-Human IgG (H+L) (Jackson ImmunoResearch, West Grove, Pa.) (500 ng/ml). The KD and/or ABC (active binding concentration) of antibody was obtained from non-linear regression analysis using a one-site homogeneous binding model in the KINEXA™ Pro Software.

human IL-36R (on cells) [2] = target: T2, human IL-36R (on cells) (human, UniProt Q9HB29 20-575); test: cell-based or functional assay
T2 sequence (looked up): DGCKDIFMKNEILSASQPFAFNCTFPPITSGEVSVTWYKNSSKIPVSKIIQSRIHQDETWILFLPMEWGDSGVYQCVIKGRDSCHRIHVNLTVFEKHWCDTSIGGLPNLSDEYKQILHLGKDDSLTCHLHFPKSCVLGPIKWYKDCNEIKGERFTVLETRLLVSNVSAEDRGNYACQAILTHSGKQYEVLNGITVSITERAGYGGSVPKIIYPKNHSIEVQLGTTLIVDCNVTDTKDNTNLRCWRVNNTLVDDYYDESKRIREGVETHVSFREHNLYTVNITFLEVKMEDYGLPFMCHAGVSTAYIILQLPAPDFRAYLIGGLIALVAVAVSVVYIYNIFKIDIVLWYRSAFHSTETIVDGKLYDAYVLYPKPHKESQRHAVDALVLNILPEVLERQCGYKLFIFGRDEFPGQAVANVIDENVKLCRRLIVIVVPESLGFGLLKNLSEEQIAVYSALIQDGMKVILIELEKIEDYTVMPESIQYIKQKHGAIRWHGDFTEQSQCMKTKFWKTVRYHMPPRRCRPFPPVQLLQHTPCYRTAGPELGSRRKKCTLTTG

[3] = target: cynomolgus IL-36R (on cells, allelic variant not stated) (cynomolgus monkey), A0A2K5; test: cell-based or functional assay
Chain of cynomolgus IL-36R (on cells, allelic variant not stated) (cynomolgus monkey), A0A2K5 (chain, as listed by the source mutant): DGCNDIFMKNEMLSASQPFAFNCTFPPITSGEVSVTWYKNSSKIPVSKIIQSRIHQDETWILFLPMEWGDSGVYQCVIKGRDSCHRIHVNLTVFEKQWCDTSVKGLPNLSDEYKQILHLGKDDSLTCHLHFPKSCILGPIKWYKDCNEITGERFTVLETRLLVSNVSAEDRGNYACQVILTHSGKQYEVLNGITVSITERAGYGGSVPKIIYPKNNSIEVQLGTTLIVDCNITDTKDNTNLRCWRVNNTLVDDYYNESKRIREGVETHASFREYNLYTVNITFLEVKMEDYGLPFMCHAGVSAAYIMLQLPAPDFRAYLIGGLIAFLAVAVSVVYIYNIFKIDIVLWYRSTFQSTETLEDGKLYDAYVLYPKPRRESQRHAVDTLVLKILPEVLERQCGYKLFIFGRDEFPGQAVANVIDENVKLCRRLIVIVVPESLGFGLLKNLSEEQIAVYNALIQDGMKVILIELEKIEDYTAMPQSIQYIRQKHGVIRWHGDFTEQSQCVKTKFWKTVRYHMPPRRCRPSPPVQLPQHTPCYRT

human IL-36R (on cells) [4] = target: T2, human IL-36R (on cells); test: cell-based or functional assay; remark: listed apart in the source
[5] = target: cynomolgus monkey IL-36R variant 2 (on cells) (cynomolgus monkey), A0A2K5; test: cell-based or functional assay
Chain of cynomolgus monkey IL-36R variant 2 (on cells) (cynomolgus monkey), A0A2K5 (chain, as listed by the source mutant): as above

[6] = target: cynomolgus monkey IL-36R variant 3 (on cells) (cynomolgus monkey), A0A2K5; test: cell-based or functional assay
Chain of cynomolgus monkey IL-36R variant 3 (on cells) (cynomolgus monkey), A0A2K5 (chain, as listed by the source mutant): as above

- Kd [1]: 0.027 nM
B1: APE6904 (antibody, V domains shown)
VH: DLQFQESGPGLVKPSQTLSLTCTVTGYSITADFAWNWIRQPPGKGLEWIGYISYSGDTNYNPSLKSRVTITRDTSKNQFSLKLSSVTAADTAVYFCAIRGPYSFTYWGQGTLVTVSS
VL: DIQMTQSPSSLSASVGDRVTITCRASQWINNYLNWYQQKPGKAPKLLIYYTSMLHSGVPSRFSPSGSGNDYTFTISSLQPEDIATYYCQQGHTLPWTFGGGTKVEIKR
notes: also called 18D4 Humanized

- EC50 (nM), HEK human IL-36R IL-8 luciferase reporter assay, 200 ng/ml hIL-36γ (human IL-36R (on cells) [2]): 11 nM
B2: Hzd 18D4 (APE5713) (antibody, V domains shown)
VH: B1 VH with D1Q, L2V, T25S, A31S, T71S
VL: DIQMTQSPSSLSASVGDRVTITCRASQDINNYLNWYQQKPGKAPKLLIYYTSRLHSGVPSRFSPSGSGTDYTFTISSLQPEDIATYYCQQGHTLPWTFGGGTKVEIK

- EC50 (nM), HEK cyno IL-36R IL-8 luciferase reporter assay, 300 ng/ml cIL-36γ [3]: 0.51 nM
- EC50 (nM), IL-8 secretion by primary human monocytes, human IL-36β (human IL-36R (on cells) [4]): 6 nM
- EC50 (nM), IL-8 secretion by primary human monocytes, human IL-36γ (human IL-36R (on cells) [4]): 3 nM
- EC50 (nM), HEK human IL-36R IL-8 luciferase reporter assay, 20 ng/ml hIL-36β (human IL-36R (on cells) [2]): 4.2 nM
- EC50 (nM), HEK human IL-36R IL-8 luciferase reporter assay, 200 ng/ml hIL-36γ (human IL-36R (on cells) [2]): 3.6 nM
B3: Chimeric 18D4 (APE3847) (antibody, V domains shown)
VH: DVQFQESGPGLVKPSQSLSLTCTVTGYSITSDFAWNWIRQFPGNKLEWMGYISYSGDTNYNPSLKSRISITRDTSKNQFFLQLNSVTTEDTATYFCAIRGPYSFTYWGPGTLVTVSS
VL: DIQMTQTTSSLSASLGDRVTINCRASQDINNYLNWYQQKPDGTIRLLIYYTSRLHSGVPSRFSPNGSGTDYSLTINNLEQEDIATYFCQQGHTLPWTFGGGTKLEIK

- EC50 (nM), HEK cyno IL-36R IL-8 luciferase reporter assay, 300 ng/ml cIL-36γ [3]: 0.24 nM
- EC50 (nM), IL-8 secretion by primary cynomolgus keratinocytes, 10 ng/ml cyno IL-36β [3]: 1.8 nM
- EC50 (nM), IL-8 secretion by primary cynomolgus keratinocytes, 50 ng/ml cyno IL-36α [3]: 2.3 nM
- EC50 (nM), IL-8 secretion by primary cynomolgus keratinocytes, 250 ng/ml cyno IL-36γ [3]: 5.6 nM
- EC50 (nM), IL-8 luciferase reporter assay, 300 ng/ml IL-36γ (Cyno IL-36R variant 2) [5]: 0.065 nM
- EC50 (nM), IL-8 luciferase reporter assay, 300 ng/ml IL-36γ (Cyno IL-36R variant 3) [6]: 0.42 nM
B4: Hzd 18D4 (APE7247) (antibody, V domains shown)
VH: DVQFQESGPGLVKPSQTLSLTCTVTGYSITADFAWNWIRQPPGKGLEWIGYISYSGDTNYNPSLKSRVTITRDTSKNQFSLKLSSVTAADTAVYFCAIRGPYSFTYWGQGTLVTVSSA
VL: DIQMTQSPSSLSASVGDRVTITCRASQWINNYLNWYQQKPGKAPKLLIYYTSMLHSGVPSRFSPSGSGNDYTFTISSLQPEDIATYYCQQGHTLPWTFGGGTKVEIKRT
